In the supplement of paper PMC7877785:
± gives the uncertainty stated by the source.

Assay: self-splicing fitness, log relative to wild type (ln ratio); higher = more splicing; Tetrahymena group I intron in knt gene, E. coli kanamycin selection, DiMSum; sequences stand for … in CUCUCU…GGAGGGAAAAGUUAUCAGGCAUGCACCUGGUAGCUAGUCUUUAAACCAAUAGAUUGCAUCGGUUUAAAAGGCAAGACCGUCAAAUUGCGGGAAAGGGGUCAACAGCCGUUCAGUACCAAGUCUCAGGGGAAACUUUGAGAUGGCCUUGCAAAGGGUAUGGUAAUAAGCUGACGGACAUGGUCCUAACCACGCAGCCAAGUCCUAAGUCAACAGAUCUUCUGUUGAUAUGGAUGCAGUUCACAGACUAAAUGUCGGUCGGGGAAGAUGUAUUCUUCUCAUAAGAUAUAGUCGGACCUCUCCUUAAUGGGAGCUAGCGGAUGAAGUGAUGCAACACUGGAGCCGCUGGGAACUAAUUUGUAUGCGAAAGUAUAUUGAUUAGUUUUGGAGUACUCGUGGUCG
In short: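 DiMSum derived fitness as the error-weighted combination of fold changes across replicates, kanamycin versus no kanamycin, normalised to wild type. E. coli BL21(DE3) held the library, which randomised all eight P1ex-region intron nucleotides within the knt kanamycin-resistance gene on pET-22b(+). Six replicate transformations grew overnight at 37°C or 30°C on LB agar with or without 25 μg/mL kanamycin, also containing 100 μg/mL carbenicillin, 50 μM IPTG and 0.2% rhamnose, and pooled colonies were amplicon-sequenced on an Illumina HiSeq 2500.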

Row | Sequence | self-splicing fitness (ln) (30 °C) | self-splicing fitness (ln) (37 °C)
1 | ACGCAGCAAUAUUACGGUUU | -0.937 ± 0.054 | -0.076 ± 0.083
2 | AUUAAGCAAUAUUACGCCCU | -0.0606 ± 0.33 | -0.149 ± 0.28
3 | GAAAAGCAAUAUUACGACUG | -0.58 ± 0.094 | -0.857 ± 0.1
4 | AUUAAGCAAUAUUACGGUGA | -1.3 ± 0.13 | -0.588 ± 0.14
5 | CGUGAGCAAUAUUACGGAUU | -4.38 ± 0.36 | -3.78 ± 0.46
6 | CUGCAGCAAUAUUACGUUUU | -3.97 ± 0.19 | -3.27 ± 0.21
7 | GCUUAGCAAUAUUACGAUCA | -1.1 ± 0.14 | -0.788 ± 0.16
8 | CAGGAGCAAUAUUACGUACC | -2.36 ± 0.45 | –
9 | UGGGAGCAAUAUUACGGCUA | -0.66 ± 0.21 | -0.59 ± 0.15
10 | GUCUAGCAAUAUUACGGCGG | -2.66 ± 0.42 | -2.32 ± 0.4
11 | CCUAAGCAAUAUUACGGUUC | -3.88 ± 0.23 | -2.59 ± 0.22
12 | UUUAAGCAAUAUUACGGAAA | -2.33 ± 0.23 | -0.53 ± 0.23
13 | AGGUAGCAAUAUUACGCCCU | -3.56 ± 0.048 | -2.45 ± 0.058
14 | CGCAAGCAAUAUUACGCAUG | -2.77 ± 0.11 | -2.19 ± 0.12
15 | UUUGAGCAAUAUUACGCACG | – | -1.45 ± 0.42
16 | GGUCAGCAAUAUUACGUUUG | -2.61 ± 0.11 | -2.38 ± 0.15
17 | UAAAAGCAAUAUUACGACAG | -0.555 ± 0.057 | -0.173 ± 0.074
18 | CUGGAGCAAUAUUACGAAAG | -3.51 ± 0.4 | –
19 | AUUAAGCAAUAUUACGCGAU | -3.33 ± 0.23 | -2.63 ± 0.34
20 | CUGCAGCAAUAUUACGGAGA | -3.35 ± 0.22 | -2.83 ± 0.34
21 | UCCUAGCAAUAUUACGGCCA | -3.17 ± 0.15 | -1.74 ± 0.11
22 | CGCAAGCAAUAUUACGUCUA | -1.6 ± 0.13 | -0.573 ± 0.11
23 | ACGCAGCAAUAUUACGGGCA | -1.08 ± 0.081 | -0.293 ± 0.094
24 | CCGCAGCAAUAUUACGGUUU | -3.45 ± 0.14 | -2.86 ± 0.16
25 | UACCAGCAAUAUUACGUCAC | -4.46 ± 0.42 | -2.32 ± 0.35

Row | Sequence | self-splicing fitness (ln) (30 °C) | self-splicing fitness (ln) (37 °C)
26 | GUACAGCAAUAUUACGCAAC | -2.08 ± 0.18 | -0.557 ± 0.17
27 | AAGAAGCAAUAUUACGGACG | -0.677 ± 0.071 | 0.0583 ± 0.11
28 | GUAGAGCAAUAUUACGCAGC | -0.915 ± 0.17 | -2.37 ± 0.22
29 | CUAAAGCAAUAUUACGAGCA | -3.41 ± 0.25 | -1.08 ± 0.2
30 | AAUUAGCAAUAUUACGAGAC | – | -2.39 ± 0.39
31 | UACAAGCAAUAUUACGUUGU | -3.58 ± 0.12 | -2.99 ± 0.14
32 | UAAGAGCAAUAUUACGGCAC | – | -1.16 ± 0.48
33 | GUUGAGCAAUAUUACGUUAG | -4.58 ± 0.41 | -2.82 ± 0.43
34 | UACGAGCAAUAUUACGAUAG | -3.66 ± 0.47 | -2.31 ± 0.42
35 | AGUUAGCAAUAUUACGCCUU | -0.974 ± 0.23 | -0.383 ± 0.33
36 | CGAUAGCAAUAUUACGGCAA | -2.65 ± 0.27 | -1.79 ± 0.22
37 | AGAUAGCAAUAUUACGGGGC | -2.65 ± 0.2 | -3.29 ± 0.37
38 | GCUAAGCAAUAUUACGCGCA | -0.989 ± 0.1 | -0.114 ± 0.12
39 | GCCAAGCAAUAUUACGAACC | -2.03 ± 0.12 | -0.423 ± 0.14
40 | UGUCAGCAAUAUUACGUAGA | -0.492 ± 0.057 | -0.604 ± 0.081
41 | GAGCAGCAAUAUUACGAGAA | -2.25 ± 0.31 | -2.61 ± 0.36
42 | GGAGAGCAAUAUUACGCCUA | -2.28 ± 0.32 | -2.48 ± 0.34
43 | CGAUAGCAAUAUUACGUUGG | -1.62 ± 0.091 | -0.0971 ± 0.086
44 | AACCAGCAAUAUUACGAACC | -0.246 ± 0.13 | 0.00425 ± 0.19
45 | AACUAGCAAUAUUACGGCGA | -0.842 ± 0.1 | -0.155 ± 0.13
46 | AAGAAGCAAUAUUACGAUCG | -1.23 ± 0.12 | -0.674 ± 0.14
47 | GGGAAGCAAUAUUACGGCUG | -0.935 ± 0.13 | -0.54 ± 0.17
48 | AGCGAGCAAUAUUACGAUUG | -4.39 ± 0.42 | -1.52 ± 0.34
49 | GCUGAGCAAUAUUACGGCGU | -0.642 ± 0.14 | 0.234 ± 0.15
50 | UGGCAGCAAUAUUACGAGGC | -2.12 ± 0.2 | –

Row | Sequence | self-splicing fitness (ln) (30 °C) | self-splicing fitness (ln) (37 °C)
51 | UCGUAGCAAUAUUACGUUCA | -1.39 ± 0.097 | -0.421 ± 0.11
52 | CCACAGCAAUAUUACGAACU | -2.98 ± 0.17 | -3.23 ± 0.32
53 | CUCGAGCAAUAUUACGGCGU | -1.96 ± 0.12 | -1.61 ± 0.18
54 | GAGGAGCAAUAUUACGUCCA | -1.23 ± 0.12 | -0.83 ± 0.16
55 | GCGAAGCAAUAUUACGUGUC | -4.67 ± 0.46 | -3.21 ± 0.33
56 | ACGCAGCAAUAUUACGGAUU | -2.19 ± 0.08 | -0.83 ± 0.085
57 | GUCUAGCAAUAUUACGGUAU | -0.441 ± 0.1 | 0.315 ± 0.11
58 | ACGGAGCAAUAUUACGCAAU | -2.81 ± 0.24 | -3.02 ± 0.43
59 | GGCCAGCAAUAUUACGACAU | -1.21 ± 0.013 | -0.437 ± 0.032
60 | ACCGAGCAAUAUUACGGGCA | -0.957 ± 0.1 | -0.109 ± 0.11
61 | CAGGAGCAAUAUUACGAUUA | -3.38 ± 0.31 | -2.37 ± 0.3
62 | CUGGAGCAAUAUUACGCCAG | – | -2.59 ± 0.33
63 | GGGCAGCAAUAUUACGGCAG | -2.41 ± 0.13 | -0.994 ± 0.14
64 | UUUAAGCAAUAUUACGACGU | -1.73 ± 0.15 | -0.17 ± 0.15
65 | CAUCAGCAAUAUUACGUAGA | -1.06 ± 0.065 | -0.309 ± 0.088
66 | UGGCAGCAAUAUUACGGCCA | – | -0.836 ± 0.45
67 | AACUAGCAAUAUUACGAGUC | -3.83 ± 0.33 | -1.77 ± 0.19
68 | ACGGAGCAAUAUUACGACAG | -2.34 ± 0.26 | -2.62 ± 0.34
69 | GCGUAGCAAUAUUACGUUCA | -0.985 ± 0.11 | -0.728 ± 0.12
70 | UUGGAGCAAUAUUACGUUGU | -4.09 ± 0.36 | -1.77 ± 0.26
71 | AAGAAGCAAUAUUACGAGGU | -3.38 ± 0.33 | -2.42 ± 0.42
72 | ACAAAGCAAUAUUACGAACU | -0.4 ± 0.055 | 0.248 ± 0.075
73 | CACCAGCAAUAUUACGAUGA | -1.9 ± 0.091 | -2 ± 0.099
74 | CGACAGCAAUAUUACGGACC | -2.09 ± 0.083 | -0.0291 ± 0.11
75 | CGAUAGCAAUAUUACGUCCA | -1.86 ± 0.15 | -0.237 ± 0.16

Row | Sequence | self-splicing fitness (ln) (30 °C) | self-splicing fitness (ln) (37 °C)
76 | ACCCAGCAAUAUUACGGACC | -0.974 ± 0.073 | -0.347 ± 0.089
77 | GUAAAGCAAUAUUACGACCU | 0.443 ± 0.18 | 0.00961 ± 0.19
78 | UGCGAGCAAUAUUACGGACC | -2.33 ± 0.19 | –
79 | UGCUAGCAAUAUUACGUUCA | -0.255 ± 0.076 | 0.0245 ± 0.12
80 | CUUUAGCAAUAUUACGAAUU | – | -3.6 ± 0.46
81 | AAACAGCAAUAUUACGUUUG | -2.49 ± 0.1 | -1.51 ± 0.099
82 | UCGAAGCAAUAUUACGGCCU | -2.16 ± 0.22 | -1.77 ± 0.21
83 | GACUAGCAAUAUUACGUCAG | -2.88 ± 0.21 | -3.7 ± 0.37
84 | AUCAAGCAAUAUUACGAGCC | -3.07 ± 0.32 | -1.23 ± 0.31
85 | CAACAGCAAUAUUACGAGAG | -3.41 ± 0.13 | -1.91 ± 0.11
86 | GAAUAGCAAUAUUACGUCAA | -2.1 ± 0.14 | -1.95 ± 0.13
87 | GUUAAGCAAUAUUACGUGAA | -1.75 ± 0.11 | -1.47 ± 0.16
88 | CGUUAGCAAUAUUACGCAAA | -2.53 ± 0.36 | -2.67 ± 0.48
89 | GUUAAGCAAUAUUACGAGAU | -2.48 ± 0.3 | -1.81 ± 0.35
90 | UUAGAGCAAUAUUACGGGCG | -2.23 ± 0.14 | -1.13 ± 0.17
91 | CUUGAGCAAUAUUACGGCGU | -3.95 ± 0.34 | -2.76 ± 0.26
92 | UCCAAGCAAUAUUACGCAAU | -3.44 ± 0.22 | -2.71 ± 0.26
93 | GACGAGCAAUAUUACGGAAG | -2.39 ± 0.23 | -2.5 ± 0.31
94 | UAGCAGCAAUAUUACGACUU | -0.541 ± 0.098 | 0.107 ± 0.11
95 | GAGAAGCAAUAUUACGGGUC | -3.08 ± 0.15 | -2.24 ± 0.16
96 | GCUGAGCAAUAUUACGCGUA | – | -2.23 ± 0.37
97 | CCUUAGCAAUAUUACGCAAC | – | -2.04 ± 0.48
98 | AGCAAGCAAUAUUACGGUAC | -4.18 ± 0.2 | -2.16 ± 0.16
99 | GCGGAGCAAUAUUACGUGGG | -2.01 ± 0.3 | -2.25 ± 0.34
